According to the supplement of paper PMC9170038:

Test system: MS2 coat protein
Test: apparent KD of MS2 coat protein, switch OFF state (with FMN for OFF switches, without FMN for ON switches); designed switch direction (-1 OFF switch, 1 ON switch): 1; higher = weaker reporter binding
Settings: FMN input: 0 or 200 uM; Eterna round: R93 (includes R88 designs)
Summary of the method: (§1)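 Designed RNA switches were transcribed on-chip from Illumina sequencing clusters. They were then titrated with SNAP-549-labelled MS2 coat protein (twofold steps, 0.7 or 1.5 nM to 3 µM; 0.8–1.5 h to 10–20 min per step) in 100 mM Tris-HCl pH 7.5, 80 mM KCl, 4 mM MgCl2, without or with constant ligand. Apparent KD is the per-design median of normalised cluster binding-curve fits.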

Q: For “AAAAAACAUGAGGAUCACCCAUGUAAAAAAAACACAGGAUAUCCCUUUUUUAAAAAAAAAGGAGAAGGGUGAAAAA [Nob's Hobby 7 - Jieux - Same State 1]”, which “apparent KD of MS2 coat protein” value is on record?
A: 31.5 nM

Q: With “CUUAGGAAGAGAGAGGAUAUCCAAAGGAAAACAUGAGGAUCACCCAUGUAAAAGGUAGGAAAUUGGGAGAAGGCUCAAGAGAGAG [salish99-ss2-080]” as the sequence, how does the “apparent KD of MS2 coat protein” value read?
A: 31.8 nM

Q: “UUUAAUUAUACGAAGGAUAUCGGUAAUUAGACAUGAGGAUCACCCAUGUUAUAAGGUUCCAUAUUCGAGAAGGUCGCGGGUGAAC [JR_SS002_Sub509]” was tested. Which “apparent KD of MS2 coat protein” value did it give?
A: 18.2 nM

Q: How did the “apparent KD of MS2 coat protein” value turn out when “UGAAGACAUGAGGAUCACCCAUGUGGGAUUAUGGGAGGAUAUACAAAGACGAGAGUCAGAGUAGAAGGCCUAGGAC [salish99-ss1-119(!)]” was run?
A: 72.9 nM

Q: With “AGGAAACAUGAGGAUCACCCAUGUAAAAGGUGGUUAGGAUAUGCGAUAAUAAAAAUAAUAGCAGAAGGGACAAGAA [Same State of Confusion3 mod Fisker]” as the sequence, how does the “apparent KD of MS2 coat protein” value read?
A: 416 nM

Q: “AGGAAACAUGAGGAUCACCCAUGUAAAAAUAUGGGAGGAUAUACGAAGACGAAAGAAAAAGUAGAAGGCCUAAAAG [Garnet 14]” was tested. Which “apparent KD of MS2 coat protein” value did it give?
A: 155 nM

Q: “AGGAAACAUGAGGAUCACCCAUGUAAAAAAAUGGGAGGAUAUCCGCAUUAAUUAAAUGAAGGAGAAGGCCUAAAAA [71%, Same state of confusion2, 5]” was tested. Which “apparent KD of MS2 coat protein” value did it give?
A: 63.1 nM

Q: With “AAGAAACAUGAGGAUCACCCAUGUAAGAUAUACACAGGAUAUGCGAAAAGAAACAAAGAAGCAGAAGGGUGGAAAA [75%, Ex sub1, 10]” as the sequence, how does the “apparent KD of MS2 coat protein” value read?
A: 33.4 nM

Q: Which “apparent KD of MS2 coat protein” value does the source give for “AAACCACAUGAGGAUCACCCAUGUAGAAAUAUGGGAGGAUAUACAAAGACGAAAGUCAAAGUAGAAGGCCUAAAAG [77%, Mat - Mod of Eli, 5]” here?
A: 97.5 nM

Q: “AGGAGACAUGAGGAUCACCCAUGUAGAAGGAUGGGAGGAUAUACAAAGACGAGAGUCAGAGUAGAAGGCCUAGGGA [salish99-ss1-183(!)]” was tested. Which “apparent KD of MS2 coat protein” value did it give?
A: 54.1 nM

Q: For “AGGAAACAUGAGGAUCACCCAUGUAAAAAUAUGGGAGGAUAUACGAAGACGAAAGUGAGAGUAGAAGGCCUAAAAG [Garnet 8]”, which “apparent KD of MS2 coat protein” value is on record?
A: 87.7 nM

Q: For “GAAAAACAUGAGGAUCACCCAUGUGAGAAUAUGGGAGGAUAUACAAGGACGAGAGUCAAGGUAGAAGGCCUAAAAG [Mat - Same State 1 - Eli mod - 29]”, which “apparent KD of MS2 coat protein” value is on record?
A: 247 nM

Q: How did the “apparent KD of MS2 coat protein” value turn out when “AGGAAACAUGAGGAUCACCCAUGUAAAAAUAUGGGAGGAUAUGCGAAAAGAAACAAAGAAGCAGAAGGCCUAAAAA [75%, Ex sub1, 21]” was run?
A: 66.9 nM

Q: For “AAAUAAAUGACUGAGGAUAUAUCGAUGUGUACAUGAGGAUCACCCAUGUGUGAAUAAAAAGGGUGGUAGAAGGUAGUCAACAAAC [Mod 17 of Pariah 4 by Hyphema in Round 1]”, which “apparent KD of MS2 coat protein” value is on record?
A: 66.7 nM

Q: Which “apparent KD of MS2 coat protein” value does the source give for “AGGAAACAUGAGGAUCACCCAUGUAAAGAUGGAGGAGGAUAUCGAAAGAAAAGAAAGAAACGAGAAGGCCUAAAAG [59%, Flamingo, 2]” here?
A: 99.2 nM

Q: For “CGAUCACAUGAGGAUCACCCAUGUAUCGAUAAACGAGGAUAUGGGAGCGGGAUCUGUGGACCAGAAGGCGUACGGA [Celeus]”, which “apparent KD of MS2 coat protein” value is on record?
A: 38.7 nM

Q: With “AAGAAACAUGAGGAUCACCCAUGUGAUAAUAUGGGAGGAUAUACGAAGACGAAAGUCGAAGUAGAAGGCCUAUGAA [Garnet 42]” as the sequence, how does the “apparent KD of MS2 coat protein” value read?
A: 57.2 nM

Q: With “AGGAAACAUGAGGAUCACCCAUGUAUAAAAAUGGAAGGAUAUACUAAGACGAAAGUCAUAGUAGAAGGUCUAAAAA [76%, Meechl, 10]” as the sequence, how does the “apparent KD of MS2 coat protein” value read?
A: 20.7 nM

Q: Which “apparent KD of MS2 coat protein” value does the source give for “AAUAAACAUGAGGAUCACCCAUGUUUUAAUAGUUGAGGAUAUACGGGUGAAAAUAGCAUAGUAGAAGGCGAGUGUA [SameState1 Malc#13]” here?
A: 36.8 nM

Q: For “UUUAAUUAUACGAAGGAUAUCGGUAAUUAGACAUGAGGAUCACCCAUGUUAUAUGGUUAAAUAUUCGAGAAGGUCGCGGGUGAAC [JR_SS002_Sub507]”, which “apparent KD of MS2 coat protein” value is on record?
A: 33.6 nM

Q: How did the “apparent KD of MS2 coat protein” value turn out when “AAAAAACAUGAGGAUCACCCAUGUAGAAAUAUGGAAGGAUAUGGAAACACGAAAGUGAAACCAGAAGGUCCAAAAG [77%, Mat - Mod of Eli, 9]” was run?
A: 23.9 nM

Q: For “AAAUAACAUGAGGAUCACCCAUGUUGCAACGAUACAGGAUAUGUGGGUGAAAAUAGCAUGACAGAAGGGUAAUGUA [SameState1 Malc#31]”, which “apparent KD of MS2 coat protein” value is on record?
A: 35 nM

Q: For “AUAUGAGCUAUGGAGGAUAUCCAUAACAAGACAUGAGGAUCACCCAUGUAAGAAAGAAAAGAAUGGGAGAAGGCCAUAGCUCAAU [SS 2 M46]”, which “apparent KD of MS2 coat protein” value is on record?
A: 63.7 nM

Q: For “CAUCAUGCGCCUAAGGAUAUGUCUCACAAGACAUGAGGAUCACCCAUGUAGCCAAAAUAAACGAUGCAGAAGGUGGAGCACAUGC [Atrexe]”, which “apparent KD of MS2 coat protein” value is on record?
A: 602 nM

Q: For “GUGGCCCAGGCACAGGAUAUGUUUCUCGUAACAUGAGGAUCACCCAUGUGCCUAUGAGAUUUAAUGCAGAAGGGUGCACGCCACG [Atiinbe]”, which “apparent KD of MS2 coat protein” value is on record?
A: 342 nM

Test system: MS2 coat protein
Test: apparent KD of MS2 coat protein, switch OFF state (with FMN for OFF switches, without FMN for ON switches); designed switch direction (-1 OFF switch, 1 ON switch): -1; higher = weaker reporter binding
Settings: FMN input: 0 or 200 uM; Eterna round: R93 (includes R88 designs)
Summary of the method: as §1

Q: With “AAAACACAUGAGGAUCACCCAUGUGAGGAUAUGCUAUGGAAAUAAAAAAUAAAACAUAGCAGAAGGCACAAGGA [Mat - Exclusion 1 - Eli mod - D45]” as the sequence, how does the “apparent KD of MS2 coat protein” value read?
A: 49.1 nM

Q: For “AACAGUACAGGAUAUACAUGAGGAUCACCCAUGUGAGAAUUUAGCAGCGUAACACACAGUAGAAGGGUAAUGGA [Ruby 21]”, which “apparent KD of MS2 coat protein” value is on record?
A: 39.3 nM

Q: Which “apparent KD of MS2 coat protein” value does the source give for “GAAAAACAUGAGGAUCACCCAUGUCAGGAUAUCGAAAAAUAAAUAAAAAUAAAAUAAACGAGAAGGGACAAAAG [Mat - Same state - Mayanna Mod - D111]” here?
A: 61.1 nM

Q: With “AAAAAACAUGAGGAUCACCCAUGUGAGGAUAUGGAAAAGAAAAGAAAAGAAAGAAGAACCAGAAGGCACAAGAA [Khafre]” as the sequence, how does the “apparent KD of MS2 coat protein” value read?
A: 37.9 nM

Q: Which “apparent KD of MS2 coat protein” value does the source give for “AAGAAGUCAGGAUAUGCUGAUAGUAAAUUGAGUGAUGAGUAGCAGAAGGGACAUGAGGAUCACCCAUGUAAAGA [Opal 12]” here?
A: 32.6 nM

Q: How did the “apparent KD of MS2 coat protein” value turn out when “AAAAAAAGAGGAUAUACAUGAGAAAAAAAAAUGUAAAAAAAACAUGAGGAUCACCCAUGUAGAAGGCUUAAAAA [Ecxl-I]” was run?
A: 48.3 nM

Q: With “AAAAAGUGAGGAUAUACAUGAGGAUCACCCAUGUUAAGGUAAUAUAUAUAUAUAUAUAGUAGAAGGCACAAAAA [Default title]” as the sequence, how does the “apparent KD of MS2 coat protein” value read?
A: 31.5 nM

Q: Which “apparent KD of MS2 coat protein” value does the source give for “GGUUGGCGAGGAUAUACAUGAGGAUCACCCAUGUGAGCGAAAAAAGUGAGAAAGAAAAGUAGAAGGCGCUGACG [salish99-ex3-50]” here?
A: 60.5 nM

Q: Which “apparent KD of MS2 coat protein” value does the source give for “CAGUACUGAGGAUAUACAUGAGGAUCACCCAUGUAUCCAAGCUAGGAAACUAGCAAAAGUAGAAGGCAGUACUG [Ex3: 820]” here?
A: 65.5 nM

Q: Which “apparent KD of MS2 coat protein” value does the source give for “AACAGUACAGGAUAUACAUGAGGAUCACCCAUGUCACAACAAAGCAGCGCAACACAAAGUAGAAGGGUAAUGGA [Ruby 15]” here?
A: 40.4 nM

Q: Which “apparent KD of MS2 coat protein” value does the source give for “AGGGAGUGAGGAUAUACGAAAAAAAAAGAAGGAAAAAAAGAGUAGAAGGCACAUGAGGAUCACCCAUGUAAGAA [milkweed 13]” here?
A: 26 nM

Q: How did the “apparent KD of MS2 coat protein” value turn out when “AAUAUGGGAGGAUAUGCAUAGAUAAAGAAACAUGUUAAAACACAUGAGGAUCACCCAUGUAGAAGGCCCAUAUA [AJ 10]” was run?
A: 335 nM

Q: Which “apparent KD of MS2 coat protein” value does the source give for “AAAAAAAGAGGAUAUACGAACAUGUCGAAAGACGUGAAGGGACAUGAGGAUCACCCAUGUAGAAGGUUUAAAAA [Mat - Exclusion 2 - JL mod - D83]” here?
A: 14.6 nM

Q: With “AAAAUGUCAGGAUAUGCGAAGGCAUCUGACAGAUGAGGAUUGCAGAAGGGACAUGAGGAUCACCCAUGUAAAAA” as the sequence, how does the “apparent KD of MS2 coat protein” value read?
A: 41.7 nM

Q: “UUUAUGUGAGGAUAUACGAAUAGUAAGUAAGUCUUACAGACGUAGAAGGCACAUGAGGAUCACCCAUGUGAACC [JR_Exc004_Sub309]” was tested. Which “apparent KD of MS2 coat protein” value did it give?
A: 277 nM

Q: With “AAAAAACAUGAGGAUCACCCAUGUGAGGAUAUCGAAAAGUCAAAGAAAAAGACGAAAACGAGAAGGCGCAAAAA [Inspired by Nando]” as the sequence, how does the “apparent KD of MS2 coat protein” value read?
A: 26 nM

Q: With “CAGUACUGAGGAUAUACAUGAGGAUCACCCAUGUAUCCUAGCUAGGAAACUAGCAAAUGUAGAAGGCAGUACUG [Ex3: 818]” as the sequence, how does the “apparent KD of MS2 coat protein” value read?
A: 503 nM

Q: For “GCGCACUAAGGAUAUACAUGAGGAUCACCCAUGUGGGUUUUGAAACAGAUUAAAUAGUGUAGAAGGUAGAAAAC [Lees]”, which “apparent KD of MS2 coat protein” value is on record?
A: 95.8 nM
